The target of the assay is murine MRC OX-2 (mouse) (UniProt O54901). The experiment in a line: FACS of 10-day cultured mouse bone marrow derived dendritic cells, anti-CD200 and PE anti-mouse IgG.
Chain of UniProt O54901 (O54901 31-278 limits assumed): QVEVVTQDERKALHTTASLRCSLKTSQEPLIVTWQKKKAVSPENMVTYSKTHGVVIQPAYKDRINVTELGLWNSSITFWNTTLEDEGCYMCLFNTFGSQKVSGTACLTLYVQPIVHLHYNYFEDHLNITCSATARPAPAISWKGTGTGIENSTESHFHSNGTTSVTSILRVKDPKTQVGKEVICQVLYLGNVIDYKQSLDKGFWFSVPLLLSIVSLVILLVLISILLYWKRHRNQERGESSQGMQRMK

The substance “mouse IgG1 anti-rat CD200 (commercial anti-rat MRC OX-2 monoclonal antibody, Cedarlane Labs)” had a percent stained cells of 14%.

Source of the values: patent publication US20110206668A1.
